Measurements reported in the supplement of paper PMC5998384.

Experiments:
HeLa Kyoto [1] = assay: thermal stability score vs G1/S (z-score of summed log2 fold changes over temperatures); higher = more thermally stable than in G1/S
HeLa Kyoto [2] = assay: melting temperature (median over replicates), in situ; higher = more thermally stable
HeLa Kyoto [3] = assay: solubility change mitosis vs G1/S (difference of NP-40 vs SDS log2 ratios) (log2 ratio difference); higher = more soluble in mitosis
HeLa Kyoto [4] = assay: solubility in G1/S (NP-40 vs SDS abundance) (log2 ratio); higher = more soluble; settings: cell cycle stage: G1/S
[5] = cell cycle stage: early G1 (4.5 h after nocodazole release)
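Wherever melting temperature (median over replicates), in situ is given: HeLa Kyoto cells synchronized by double thymidine or nocodazole block, proteins quantified by TMT10plex mass spectrometry, three independent biological replicates.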
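Wherever solubility change mitosis vs G1/S (difference of NP-40 vs SDS log2 ratios) is given: synchronized HeLa Kyoto cells (double thymidine block for G1/S, nocodazole release for mitosis), protein amounts in NP-40 versus SDS lysates quantified by mass spectrometry, three biological replicates.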
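Wherever solubility in G1/S (NP-40 vs SDS abundance) is given: HeLa Kyoto cells arrested at G1/S by double thymidine block, proteins quantified by TMT10plex mass spectrometry in mild NP-40 versus SDS extracts, three biological replicates.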
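Wherever thermal stability score vs G1/S (z-score of summed log2 fold changes over temperatures) is given: synchronized HeLa Kyoto cells, proteins quantified by TMT10plex mass spectrometry, three biological replicates, mitosis taken 0.5 h after nocodazole release, G1/S directly after double thymidine block.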

For “MENAHTKTVEEVLGHFGVNESTGLSLEQVKKLKERWGSNELPAEEGKTLLELVIEQFEDLLVRILLLAACISFVLAWFEEGEETITAFVEPFVILLILVANAIVGVWQERNAENAIEALKEYEPEMGKVYRQDRKSVQRIKAKDIVPGDIVEIAVGDKVPADIRLTSIKSTTLRVDQSILTGESVSVIKHTDPVPDPRAVNQDKKNMLFSGTNIAAGKAMGVVVATGVNTEIGKIRDEMVATEQERTPLQQKLDEFGEQLSKVISLICIAVWIINIGHFNDPVHGGSWIRGAIYYFKIAVALAVAAIPEGLPAVITTCLALGTRRMAKKNAIVRSLPSVETLGCTSVICSDKTGTLTTNQMSVCRMFILDRVEGDTCSLNEFTITGSTYAPIGEVHKDDKPVNCHQYDGLVELATICALCNDSALDYNEAKGVYEKVGEATETALTCLVEKMNVFDTELKGLSKIERANACNSVIKQLMKKEFTLEFSRDRKSMSVYCTPNKPSRTSMSKMFVKGAPEGVIDRCTHIRVGSTKVPMTSGVKQKIMSVIREWGSGSDTLRCLALATHDNPLRREEMHLEDSANFIKYETNLTFVGCVGMLDPPRIEVASSVKLCRQAGIRVIMITGDNKGTAVAICRRIGIFGQDEDVTSKAFTGREFDELNPSAQRDACLNARCFARVEPSHKSKIVEFLQSFDEITAMTGDGVNDAPALKKAEIGIAMGSGTAVAKTASEMVLADDNFSTIVAAVEEGRAIYNNMKQFIRYLISSNVGEVVCIFLTAALGFPEALIPVQLLWVNLVTDGLPATALGFNPPDLDIMNKPPRNPKEPLISGWLFFRYLAIGCYVGAATVGAAAWWFIAADGGPRVSFYQLSHFLQCKEDNPDFEGVDCAIFESPYPMTMALSVLVTIEMCNALNSLSENQSLLRMPPWENIWLVGSICLSMSLHFLILYVEPLPLIFQITPLNVTQWLMVLKISLPVILMDETLKFVARNYLEPGKECVQPATKSCSFSACTDGISWPFVLLIMPLVIWVYSTDTNFSDMFWS [ATP2A2]”, which thermal stability score (HeLa Kyoto [1]; [5]) is on record?
The thermal stability score was 3.11.

What about the thermal stability score (HeLa Kyoto [1]; cell cycle stage: mitosis) of the same sequence?
The thermal stability score was 3.97.

And the melting temperature (HeLa Kyoto [2]; cell cycle stage: G1/S)?
Its melting temperature is 51.8 °C.

And the melting temperature (HeLa Kyoto [2]; cell cycle stage: mitosis)?
Its melting temperature is 51.8 °C.

What about the “solubility change mitosis (log2)” value (HeLa Kyoto [3]) of the same sequence?
The value was -0.116.

What about the “solubility in G1/S (log2)” value (HeLa Kyoto [4]) of the same sequence?
Its value is -0.104.

With “MENKSLESSQTDLKLVAHPRAKSKVWKYFGFDTNAEGCILQWKKIYCRICMAQIAYSGNTSNLSYHLEKNHPEEFCEFVKSNTEQMREAFATAFSKLKPESSQQPGQDALAVKAGHGYDSKKQQELTAAVLGLICEGLYPASIVDEPTFKVLLKTADPRYELPSRKYISTKAIPEKYGAVREVILKELAEATWCGISTDMWRSENQNRAYVTLAAHFLGLGAPNCLSMGSRCLKTFEVPEENTAETITRVLYEVFIEWGISAKVFGATTNYGKDIVKACSLLDVAVHMPCLGHTFNAGIQQAFQLPKLGALLSRCRKLVEYFQQSAVAMYMLYEKQKQQNVAHCMLVSNRVSWWGSTLAMLQRLKEQQFVIAGVLVEDSNNHHLMLEASEWATIEGLVELLQPFKQVAEMLSASRYPTISMVKPLLHMLLNTTLNIKETDSKELSMAKEVIAKELSKTYQETPEIDMFLNVATFLDPRYKRLPFLSAFERQQVENRVVEEAKGLLDKVKDGGYRPAEDKIFPVPEEPPVKKLMRTSTPPPASVINNMLAEIFCQTGGVEDQEEWHAQVVEELSNFKSQKVLGLNEDPLKWWSDRLALFPLLPKVLQKYWCVTATRVAPERLFGSAANVVSAKRNRLAPAHVDEQVFLYENARSGAEAEPEDQDEGEWGLDQEQVFSLGDGVSGGFFGIRDSSFL [ZBED1]” as the sequence, how does the thermal stability score (HeLa Kyoto [1]; [5]) read?
Its thermal stability score is 0.506.

And the thermal stability score (HeLa Kyoto [1]; cell cycle stage: mitosis)?
Its thermal stability score is 0.95.

What about the melting temperature (HeLa Kyoto [2]; cell cycle stage: G1/S) of the same sequence?
Its melting temperature is 49.7 °C.

What about the melting temperature (HeLa Kyoto [2]; cell cycle stage: mitosis) of the same sequence?
Its melting temperature is 49.6 °C.

What about the “solubility change mitosis (log2)” value (HeLa Kyoto [3]) of the same sequence?
Its value is -0.112.

What about the “solubility in G1/S (log2)” value (HeLa Kyoto [4]) of the same sequence?
Its value is 0.0447.

How did the thermal stability score (HeLa Kyoto [1]; [5]) turn out when “MENLKHIITLGQVIHKRCEEMKYCKKQCRRLGHRVLGLIKPLEMLQDQGKRSVPSEKLTTAMNRFKAALEEANGEIEKFSNRSNICRFLTASQDKILFKDVNRKLSDVWKELSLLLQVEQRMPVSPISQGASWAQEDQQDADEDRRAFQMLRRDNEKIEASLRRLEINMKEIKETLRQYLPPKCMQEIPQEQIKEIKKEQLSGSPWILLRENEVSTLYKGEYHRAPVAIKVFKKLQAGSIAIVRQTFNKEIKTMKKFESPNILRIFGICIDETVTPPQFSIVMEYCELGTLRELLDREKDLTLGKRMVLVLGAARGLYRLHHSEAPELHGKIRSSNFLVTQGYQVKLAGFELRKTQTSMSLGTTREKTDRVKSTAYLSPQELEDVFYQYDVKSEIYSFGIVLWEIATGDIPFQGCNSEKIRKLVAVKRQQEPLGEDCPSELREIIDECRAHDPSVRPSVDEILKKLSTFSK [MLKL]” was run?
Its thermal stability score is -0.232.

And the thermal stability score (HeLa Kyoto [1]; cell cycle stage: mitosis)?
Its thermal stability score is 0.87.

What about the melting temperature (HeLa Kyoto [2]; cell cycle stage: G1/S) of the same sequence?
The melting temperature was 49.6 °C.

What about the melting temperature (HeLa Kyoto [2]; cell cycle stage: mitosis) of the same sequence?
The melting temperature was 50 °C.

And the “solubility change mitosis (log2)” value (HeLa Kyoto [3])?
Its value is -0.0647.

What about the “solubility in G1/S (log2)” value (HeLa Kyoto [4]) of the same sequence?
The value was 0.126.

Which results are given for “MENSTTTISREELEELQEAFNKIDIDNSGYVSDYELQDLFKEASLPLPGYKVREIVEKILSVADSNKDGKISFEEFVSLMQELKSKDISKTFRKIINKREGITAIGGTSTISSEGTQHSYSEEEKVAFVNWINKALENDPDCKHLIPMNPNDDSLFKSLADGILLCKMINLSEPDTIDERAINKKKLTPFTISENLNLALNSASAIGCTVVNIGASDLKEGKPHLVLGLLWQIIKVGLFADIEISRNEALIALLNEGEELEELMKLSPEELLLRWVNYHLTNAGWHTISNFSQDIKDSRAYFHLLNQIAPKGGEDGPAIAIDLSGINETNDLKRAGLMLQEADKLGCKQFVTPADVVSGNPKLNLAFVANLFNTYPCLHKPNNNDIDMNLLEGESKEERTFRNWMNSLGVNPYINHLYSDLADALVIFQLYEMIRVPVNWSHVNKPPYPALGGNMKKIENCNYAVELGKNKAKFSLVGIAGQDLNEGNSTLTLALVWQLMRRYTLNVLSDLGEGEKVNDEIIIKWVNQTLKSANKKTSISSFKDKSISTSLPVLDLIDAIAPNAVRQEMIRRENLSDEDKLNNAKYAISVARKIGARIYALPDDLVEVKPKMVMTVFACLMGKGLNRIK [PLS1]”?
thermal stability score (HeLa Kyoto [1]; [5]): 0.863; thermal stability score (HeLa Kyoto [1]; cell cycle stage: mitosis): 0.264; melting temperature (HeLa Kyoto [2]; cell cycle stage: G1/S): 52.6 °C; melting temperature (HeLa Kyoto [2]; cell cycle stage: mitosis): 53.7 °C; solubility change mitosis (log2) (HeLa Kyoto [3]): -0.0585; solubility in G1/S (log2) (HeLa Kyoto [4]): 0.301

Which results are given for “MENTENSVDSKSIKNLEPKIIHGSESMDSGISLDNSYKMDYPEMGLCIIINNKNFHKSTGMTSRSGTDVDAANLRETFRNLKYEVRNKNDLTREEIVELMRDVSKEDHSKRSSFVCVLLSHGEEGIIFGTNGPVDLKKITNFFRGDRCRSLTGKPKLFIIQACRGTELDCGIETDSGVDDDMACHKIPVEADFLYAYSTAPGYYSWRNSKDGSWFIQSLCAMLKQYADKLEFMHILTRVNRKVATEFESFSFDATFHAKKQIPCIVSMLTKELYFYH [CASP3]”?
thermal stability score (HeLa Kyoto [1]; [5]): 0.22; thermal stability score (HeLa Kyoto [1]; cell cycle stage: mitosis): -0.0196; melting temperature (HeLa Kyoto [2]; cell cycle stage: G1/S): 55.7 °C; melting temperature (HeLa Kyoto [2]; cell cycle stage: mitosis): 56.3 °C; solubility change mitosis (log2) (HeLa Kyoto [3]): 0.0123; solubility in G1/S (log2) (HeLa Kyoto [4]): 0.135
